Source: patent US20250313625A1 (ELPISCIENCE SUZHOU BIOPHARMA, published 2025)
Residue numbers refer to the chain shown, from its start. Names may count otherwise.

T1: hFc tagged human LAG3 D1-D2 recombinant protein (human, UniProt P18627 23-261)
T1 construct: range 23-261; generated by Chempartner; also called hLAG3 D1-D2; not shown: human IgG Fc tag
T1 sequence (looked up): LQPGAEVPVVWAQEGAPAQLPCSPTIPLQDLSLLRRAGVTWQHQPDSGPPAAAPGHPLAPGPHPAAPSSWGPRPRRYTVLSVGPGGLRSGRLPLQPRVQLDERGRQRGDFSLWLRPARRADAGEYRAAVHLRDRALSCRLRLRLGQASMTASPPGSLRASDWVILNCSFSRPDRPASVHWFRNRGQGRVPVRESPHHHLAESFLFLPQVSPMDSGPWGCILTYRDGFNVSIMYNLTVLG

T2: human LAG3, full length, stably expressed on cells (human, UniProt P18627 23-525)
T2 construct: whole, on cells; also called CHOK1-human LAG3
T2 sequence (looked up): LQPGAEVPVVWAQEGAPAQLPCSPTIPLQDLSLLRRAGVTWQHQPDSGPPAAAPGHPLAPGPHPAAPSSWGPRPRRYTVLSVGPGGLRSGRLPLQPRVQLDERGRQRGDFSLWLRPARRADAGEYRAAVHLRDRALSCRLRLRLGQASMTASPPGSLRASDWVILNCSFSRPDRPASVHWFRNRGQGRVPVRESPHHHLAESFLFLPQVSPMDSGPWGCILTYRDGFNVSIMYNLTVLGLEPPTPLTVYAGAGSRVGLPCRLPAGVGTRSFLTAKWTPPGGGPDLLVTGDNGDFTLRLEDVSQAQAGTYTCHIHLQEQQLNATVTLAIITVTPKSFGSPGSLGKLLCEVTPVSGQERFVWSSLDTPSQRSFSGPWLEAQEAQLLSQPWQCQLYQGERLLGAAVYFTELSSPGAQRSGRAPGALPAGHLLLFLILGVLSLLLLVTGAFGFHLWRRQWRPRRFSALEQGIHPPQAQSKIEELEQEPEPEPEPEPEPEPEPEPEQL

T3: mouse LAG3, full length, stably expressed on CHOK1 cells (mouse, UniProt Q61790 24-521)
T3 construct: whole, on cells
T3 sequence (looked up): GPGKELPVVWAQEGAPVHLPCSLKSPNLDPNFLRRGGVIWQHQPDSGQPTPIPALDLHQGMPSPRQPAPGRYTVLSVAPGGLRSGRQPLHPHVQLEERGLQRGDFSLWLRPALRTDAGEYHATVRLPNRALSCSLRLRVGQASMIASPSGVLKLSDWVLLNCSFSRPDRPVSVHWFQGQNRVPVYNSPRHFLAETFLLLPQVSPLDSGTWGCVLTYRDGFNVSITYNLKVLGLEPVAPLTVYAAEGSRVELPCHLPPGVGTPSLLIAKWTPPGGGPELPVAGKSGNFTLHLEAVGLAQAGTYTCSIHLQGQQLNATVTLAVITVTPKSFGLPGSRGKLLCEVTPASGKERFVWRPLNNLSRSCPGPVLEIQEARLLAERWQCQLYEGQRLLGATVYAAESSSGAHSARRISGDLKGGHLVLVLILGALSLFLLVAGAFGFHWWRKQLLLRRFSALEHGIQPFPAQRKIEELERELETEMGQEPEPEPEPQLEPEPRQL

T4: hFc tagged human LAG3 ECD recombinant protein (human, UniProt P18627 23-450)
T4 construct: range 23-450; also called biotin labelled hFc tagged human LAG3 ECD; not shown: human IgG Fc tag
T4 sequence (looked up): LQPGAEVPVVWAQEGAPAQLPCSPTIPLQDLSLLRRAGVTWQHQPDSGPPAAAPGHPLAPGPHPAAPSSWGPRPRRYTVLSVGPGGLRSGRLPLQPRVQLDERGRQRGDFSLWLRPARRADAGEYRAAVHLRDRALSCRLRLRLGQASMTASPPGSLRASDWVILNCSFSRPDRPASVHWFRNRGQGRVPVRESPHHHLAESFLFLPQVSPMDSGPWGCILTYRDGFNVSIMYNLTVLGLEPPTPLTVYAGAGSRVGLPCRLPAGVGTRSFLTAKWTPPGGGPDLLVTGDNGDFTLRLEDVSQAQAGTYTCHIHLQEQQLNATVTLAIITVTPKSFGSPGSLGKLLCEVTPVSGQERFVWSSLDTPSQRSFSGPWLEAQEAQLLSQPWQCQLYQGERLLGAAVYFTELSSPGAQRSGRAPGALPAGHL

T5: mFc tagged human LAG3 ECD recombinant protein (human, UniProt P18627 23-450)
T5 construct: extracellular domain; purchased from Biointron; not shown: mouse IgG Fc (mFc) tag
T5 sequence (looked up): T4 sequence (looked up)

T6: human LAG3 ECD recombinant protein (plate coated, tag not stated) (human, UniProt P18627 23-450)
T6 construct: extracellular domain
T6 sequence (looked up): T4 sequence (looked up)

B1: Antibody 015 (antibody, V domains shown)
VH: EVQLQQSGPVLVKPGASVKLSCKASGFTFTDYYMNWVKLSHGKSLEWIGVINPFNGDTAYKQKFKGKATLTVDKSSSTAYMELNSLTSEDSAVYYCARDDGYYLYYFDSWGQGTTLTVSS
VL: DIQMTQSPSSLSASLGERVSLTCRASQDIGSRLNWLQQEPDGTIKRLIYATSSLDSGVPKRFSGSRSGSDYSLTISSLDSEDFVVYYCLQYASSPPTFGAGTKLELK
notes: mouse hybridoma antibody
B2: Antibody 039 (antibody, V domains shown)
VH: EFQLQQSGPELVKPGASVKISCKASGYSFTDYNLNWVRQSNGKSLEWIGLVDPIYGTIRYNQNFKDKATLTVDQSSSTAYMQLNSLTSEDSAVYYCASIMTAVRYFDHWGQGTTLTVSS
VL: DVLMTQTPLFLPVSLGDQASISCRSSLNIVHSDGNTYLEWYLQKPGQSPKLLIYKVSNRFSGVPDRFSGSGSGTDFTLKISGVEAEDLGVYYCFQGSHVPPTFGGGTKLEIK
notes: mouse hybridoma antibody
B3: Antibody 048 (antibody, V domains shown)
VH: EFQVQQSGPELVKPGASVKISCKASGYSFSDYNMNWLKQSTGKSLEWIGLVDPIYGTIRYNQKFKGKATLTVDQSSSTAYMQLNSLTSEDSAVYYCALITTSVRYFDYWGQGTTLTVSS
VL: B2 VL with F10S, L27Q, S32T, G82R
notes: mouse hybridoma antibody
B4: 015c (antibody, human IgG4, V domains shown)
VH: B1 VH
VL: B1 VL
notes: human IgG4 S228P / kappa chimeric antibody; also called chimeric antibody 015; not shown: human kappa light chain constant region (pcDNA3.4-hIgGk vector)
B5: 024c (antibody, human IgG4, V domains shown)
VH: EVQLQQSGPELVKPGASVKISCKASGYTFTDYYMNWVKQSHGKRLEWIGDIDPNNGGTSYNQKFKGKATLTVDKSSSSAYMDLRSLTSEDSAVYYCARAGSYYYGSSYVEYFDVWGTGTTVTVSS
VL: DIQMTQSPASLSASVGETVTITCRASGNIHNYLAWYQQKQGASPQLLVYNAKTLADGVPSRFSGSGSGTEFSLKINSLQPEDFGNYYCQHFWNTPYTFGGGTKLEIK
notes: human IgG4 S228P / kappa chimeric antibody; also called chimeric antibody 024; not shown: human kappa light chain constant region (pcDNA3.4-hIgGk vector)
B6: 035c (antibody, human IgG4, V domains shown)
VH: QVQLQQSGAELARPGASVKLSCKASGYSFTSYGINWVKQRTGQGLEWIGEIYPRSGNTYYNEKFKDKATLTADKSSSTAYMELRSLTSEDSAVYFCARGGTYDGYYYAMDFWGQGTSVTVSS
VL: DIVLTQSPASLAVSLGQRATISCRASESVDNFGSSFLHWYQQKPGQAPKLLIYRASNLESGIPARFSGSGSRTDFTLTINPVETDDVATYYCQQVNKDPRTFGGGTKLEIK
notes: human IgG4 S228P / kappa chimeric antibody; also called chimeric antibody 035; not shown: human kappa light chain constant region (pcDNA3.4-hIgGk vector)
B7: 057c (antibody, human IgG4, V domains shown)
VH: B6 VH with Y27F, F64L, D66G, K67E, K74R, F111Y
VL: B6 VL with D1N, L37M, S67G, R72G, N80D
notes: human IgG4 S228P / kappa chimeric antibody; also called chimeric antibody 057; not shown: human kappa light chain constant region (pcDNA3.4-hIgGk vector)
B8: 048c (antibody, human IgG4, V domains shown)
VH: B3 VH
VL: B2 VL with F10S, L27Q, S32T, G82R
notes: human IgG4 S228P / kappa chimeric antibody; also called chimeric antibody 048; not shown: human kappa light chain constant region (pcDNA3.4-hIgGk vector)

Target: T1, hFc tagged human LAG3 D1-D2 recombinant …
Assay: ELISA, coated hFc-hLAG3 D1-D2
Protocol: Binding activity of the purified hybridoma antibodies against human LAG3 was detected by ELISA assay using hFc tagged human LAG3 D1-D2 recombinant protein. Briefly the antibodies were incubated with ELISA microplate coated antigens at 37° C. for 1 hour. After washing, horseradish peroxidase (HRP) labeled anti-human IgG 2nd Ab (Sigma) was added and incubated at 37° C. for 1 hour. Then, 100 μl/well of TMB solution (Biotechnology) was added. After incubation for 15 minutes at room temperature, the reaction was stopped by the addition of 50 μl of 1N HCl. OD 450 nm was read and EC₅₀ was calculated using GraphPad Prism9.0.

| Binder | EC50 [nM] |
| --- | --- |
| B1 | 0.25 |
| B2 | 0.04 |
| B3 | 0.05 |

Target: T2, human LAG3, full length, stably …
Assay: FACS on 293F-human LAG3 cells
Protocol: (§1) Briefly the antibodies were incubated with 2×10⁵ target cells at 4° C. for 1 hour. After washing, fluorescence labeled anti-mouse IgG 2nd antibody (Life Technologies) was added and incubated at 4° C. for 1 hour. Geometric median fluorescence intensity (MFI) was detected and EC₅₀ was calculated using GraphPad Prism9.0.

| Binder | EC50 [nM] |
| --- | --- |
| B1 | 2.09 |
| B2 | 1.38 |
| B3 | 1.19 |

Target: T3, mouse LAG3, full length, stably …
Assay: FACS on CHOK1 cells expressing mouse LAG3
Protocol: as §1

| Binder | binding result |
| --- | --- |
| B1 | no binding |
| B2 | no binding |
| B3 | no binding |

Target: T2, human LAG3, full length, stably …
Assay: FACS on 293F cells stably expressing human LAG3
Protocol: as §1
MFI was detected and EC₅₀ was calculated using GraphPad Prism9.0.

| Binder | EC50 [nM] | TOP MFI |
| --- | --- | --- |
| B4 | 1.9 | 296 |
| B5 | 1.1 | 346 |
| B6 | 1.3 | 333 |
| B7 | 1.4 | 337 |
| B8 | 1.3 | 289 |

Target: T4, hFc tagged human LAG3 ECD recombinant …
Assay: competitive FACS: hFc-LAG3 ECD binding to Raji cells (MHC II)
Protocol: Competitive FACS assay was used to determine whether the purified hybridoma antibodies can block LAG3 and MHC II interaction. […] After washing, dye labeled anti-human Fc 2nd antibody (Sigma) was added and incubated at 37° C. for 1 hour. Fluorescence intensity was detected.

| Binder | IC50 [nM] | TOP blocking (%) |
| --- | --- | --- |
| B1 | 2.7 | 94.3 |
| B2 | 5.2 | 94.9 |
| B3 | 7.6 | 92.9 |

Target: T5, mFc tagged human LAG3 ECD recombinant …
Assay: competitive FACS: mFc-LAG3 ECD binding to Raji cells (MHC II)
Protocol: Activity of the purified chimeric antibodies to block LAG3 and MHC II interaction was determined by competitive FACS assay. […] After washing, dye labeled anti-mouse Fc 2nd antibody (Sigma) was added and incubated at 37° C. for 1 hour. Fluorescence intensity was detected.

| Binder | IC50 [nM] | TOP blocking (%) |
| --- | --- | --- |
| B4 | 5.4 | 77.1 |
| B5 | 3.7 | 96.9 |
| B6 | 4.3 | 95.9 |
| B7 | 2.5 | 95.1 |
| B8 | 4 | 64.6 |

Target: T6, human LAG3 ECD recombinant protein …
Assay: competitive ELISA format I: His-FGL1 binding to coated LAG3 ECD
Protocol: After washing, HRP labeled anti-His 2nd antibody (Sigma) was added and incubated at 37° C. for 1 hour. Then, 100 μl/well of TMB solution (Biotechnology) was added. After incubation for 15 minutes at room temperature, the reaction was stopped by the addition of 50 μl of 1N HCl. OD 450 nm was read. […] After washing, HRP labeled anti-SA 2nd antibody (Sigma) was added and incubated at 37° C. for 1 hour. Then, 100 μl/well of TMB solution (Biotechnology) was added. After incubation for 15 minutes at room temperature, the reaction was stopped by the addition of 50 μl of 1N HCl. OD 450 nm was read. […] The competition assay of format III is a competitive FACS assay. […] After washing, dye labeled anti-His 2nd antibody (Sigma) was added and incubated at 37° C. for 1 hour. Fluorescence intensity was detected.

| Binder | Blocking ratio at 66.7 nM (%) |
| --- | --- |
| B4 | 43.6 |
| B5 | 39.4 |
| B6 | 24.3 |
| B7 | 33.3 |
| B8 | 41.2 |

Target: T4, hFc tagged human LAG3 ECD recombinant …
Assay: competitive ELISA: excess competitor, biotin hFc-LAG3 ECD, coated BAP-050
Protocol: (§2) Competitive ELISA assay was used for epitope binning of the purified hybridoma antibodies. […] After washing, HRP labeled anti-streptavidin (SA) 2nd antibody (Sigma) was added and incubated at 37° C. for 1 hour. Then, 100 μl/well of TMB solution (Biotechnology) was added. After incubation for 15 minutes at room temperature, the reaction was stopped by the addition of 50 μl of 1N HCl. OD 450 nm was read. Competition ratio was calculated.

| Binder | % competition [%] |
| --- | --- |
| B1 | 1.6 |
| B2 | 2.6 |
| B3 | 10 |

Target: T4, hFc tagged human LAG3 ECD recombinant …
Assay: competitive ELISA: excess competitor, biotin hFc-LAG3 ECD, coated BMS-986016
Protocol: as §2

| Binder | % competition [%] |
| --- | --- |
| B1 | 10 |
| B2 | 19.3 |
| B3 | 41.7 |
